Laboratory results reported in patent US20230212554A1 (published 2023).
Residue numbers refer to the chain shown, from its start.

T1: NPA1 (influenza A virus A/Taiwan/1/72 (H3N2), UniProt P16982 1-489)
T1 chain: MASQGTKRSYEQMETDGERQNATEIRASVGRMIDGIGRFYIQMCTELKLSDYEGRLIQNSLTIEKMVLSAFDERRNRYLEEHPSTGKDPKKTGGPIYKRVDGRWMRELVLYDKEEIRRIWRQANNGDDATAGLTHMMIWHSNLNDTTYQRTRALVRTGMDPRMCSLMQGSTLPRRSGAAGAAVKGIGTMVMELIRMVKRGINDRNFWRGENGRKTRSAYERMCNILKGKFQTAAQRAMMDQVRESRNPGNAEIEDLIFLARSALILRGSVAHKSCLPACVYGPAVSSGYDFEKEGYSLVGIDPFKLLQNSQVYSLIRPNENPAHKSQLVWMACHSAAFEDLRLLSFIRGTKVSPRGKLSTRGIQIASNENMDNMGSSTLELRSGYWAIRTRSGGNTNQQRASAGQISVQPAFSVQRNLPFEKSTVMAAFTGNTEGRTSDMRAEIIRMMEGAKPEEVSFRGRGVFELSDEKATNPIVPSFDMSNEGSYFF

T2: NPB1 (influenza B virus B/Houston/B720/2004, UniProt O36433 1-548)
T2 chain: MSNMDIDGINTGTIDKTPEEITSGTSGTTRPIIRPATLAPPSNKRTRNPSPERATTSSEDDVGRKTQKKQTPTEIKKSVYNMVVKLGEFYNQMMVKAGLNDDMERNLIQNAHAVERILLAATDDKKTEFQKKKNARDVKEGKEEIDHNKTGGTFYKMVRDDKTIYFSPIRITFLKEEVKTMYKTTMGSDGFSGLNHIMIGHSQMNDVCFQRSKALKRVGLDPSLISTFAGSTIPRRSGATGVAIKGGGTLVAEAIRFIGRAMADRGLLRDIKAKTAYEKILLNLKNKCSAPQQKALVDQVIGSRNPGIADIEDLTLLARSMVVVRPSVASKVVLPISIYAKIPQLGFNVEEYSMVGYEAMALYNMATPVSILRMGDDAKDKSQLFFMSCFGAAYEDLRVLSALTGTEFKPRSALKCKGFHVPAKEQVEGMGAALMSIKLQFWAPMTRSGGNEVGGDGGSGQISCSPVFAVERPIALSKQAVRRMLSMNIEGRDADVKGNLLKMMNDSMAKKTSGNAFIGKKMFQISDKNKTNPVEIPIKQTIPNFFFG

B1: NP10 (antibody, V domains shown)
VH: EVQLVESGGGLVQPGGSLRLSCAASGFTIDNGSIHWVRQAPGKGLEWVAWIWPFGGSTSYADSVKGRFTISADTSKNTAYLQMNSLRAEDTAVYYCARSWSSGYDYWGQGTLVTVSS
VL: DIQMTQSPSSLSASVGDRVTITCRASQDVSWSVAWYQQKPGKAPKLLISGSTWLYSGVPSRFSGSGSGTDFTLTISSLQPEDFATYYCQQYSNSPITFGQGTKVEIKR
B2: NP19 (antibody, V domains shown)
VH: EVQLVESGGGLVQPGGSLRLSCAASGFTISSWGIHWVRQAPGKGLEWVAGIGPFWGYTSYADSVKGRFTISADTSKNTAYLQMNSLRAEDTAVYYCARFGVDNYGYMDYWGQGTLVTVSS
VL: B1 VL with W31G, S32W, G50W, W53G, S92F, S94F, I96V
B3: NP21 (antibody, V domains shown)
VH: EVQLVESGGGLVQPGGSLRLSCAASGFTINGYGIHWVRQAPGKGLEWVAGIWPYGGSTFYADSVKGRFTISADTSKNTAYLQMNSLRAEDTAVYYCARFYNNHGGIMDYWGQGTLVTVSS
VL: B1 VL with S30Y, W31F, S32Y, S49Y, T52R, S94F, I96V
B4: NP4 (antibody, V domains shown)
VH: EVQLVESGGGLVQPGGSLRLSCAASGFTISNSSIHWVRQAPGKGLEWVAGIGPSGGYTFYADSVKGRFTISADTSKNTAYLQMNSLRAEDTAVYYCARFHSHNSYYSYSHYGYMDYWGQGTLVTVSS
VL: B1 VL with S30G, S32G, S51P, T52S, W53S, S92F, S94Y
B5: NP14 (antibody, V domains shown)
VH: EVQLVESGGGLVQPGGSLRLSCAASGFTIDNGGIHWVRQAPGKGLEWVASIWPSWGSTSYADSVKGRFTISADTSKNTAYLQMNSLRAEDTAVYYCARFNFGVFGVMDYWGQGTLVTVSS
VL: B1 VL with S30D, W31N, S32D, S49Y, S51P, T52R, W53G, N93S, S94W, I96L
B6: NP3 (antibody, V domains shown)
VH: B3 VH with N30S, G31N, Y54F, S57F, F59S, Y100H, N101W, H103D, G104H, I106Y
VL: B1 VL with S30G, S32Y, S49Y, G50S, S51T, W53G, S92Y, S94Y
B7: NP2 (antibody, V domains shown)
VH: EVQLVESGGGLVQPGGSLRLSCAASGFTIGGGGIHWVRQAPGKGLEWVAGIWPYWGYTFYADSVKGRFTISADTSKNTAYLQMNSLRAEDTAVYYCARFWHGNLDVMDYWGQGTLVTVSS
VL: B1 VL with S30Y, W31G, S32Y, S49Y, S51A, T52A, W53G, S94F, I96L
B8: NP20 (antibody, V domains shown)
VH: EVQLVESGGGLVQPGGSLRLSCAASGFTINGYSIHWVRQAPGKGLEWVASIGPYGGFTYYADSVKGRFTISADTSKNTAYLQMNSLRAEDTAVYYCAGFGFYYWGQGTLVTVSS
VL: B1 VL with S30G, W31Y, S32G, S51A, T52S, W53G, N93S, S94F, I96L
B9: NP23 (antibody, V domains shown)
VH: B8 VH with N30S, G31N, S33F, Y54F, Y59S, F99Y, Y102H
VL: B1 VL with S30D, W31D, S32G, S51A, T52R, S92Y, S94F, I96L
B10: NP24 (antibody, V domains shown)
VH: EVQLVESGGGLVQPGGSLRLSCAASGFTIDDWYIHWVRQAPGKGLEWVAGIGPYGGFTYYADSVKGRFTISADTSKNTAYLQMNSLRAEDTAVYYCARGYYGSFDYWGQGTLVTVSS
VL: DIQMTQSPSSLSASVGDRVTITCRASQDVGSSVAWYQQKPGKAPKLLIFYTSSLYSGVPSRFSGSGSGTDFTLTISSLQPEDFATYYCQQGWDSPVTFGQGTKVEIKR
B11: NP22 (antibody, V domains shown)
VH: B10 VH with D30S, Y33S, G52W, G55W, F57S, Y59S, Y100F, G102S, S103W
VL: B10 VL with G30F, S32W, F49S, Y50S, T51A, G91S, S94Y, V96I
B12: NP25 (antibody, V domains shown)
VH: B10 VH with D30G, D31G, W32G, Y33F, G50S, G52W, G55W, Y100S, S103Y, F104S
VL: B10 VL with S26G, G30S, S32G, F49S, Y50W, S53F, G91Y, W92Y, S94Y, V96I
B13: NP8 (antibody, V domains shown)
VH: EVQLVESGGGLVQPGGSLRLSCAASGFTINSFGIHWVRQAPGKGLEWVAGIGPFGGSTFYADSVKGRFTISADTSKNTAYLQMNSLRAEDTAVYYCARGFYWFDYWGQGTLVTVSS
VL: B10 VL with G30D, S31D, F49Y, Y50W, S52R, S53Y, W92Y, D93N, S94Y, V96L
B14: NP5 (antibody, V domains shown)
VH: EVQLVESGGGLVQPGGSLRLSCAASGFTISNGSIHWVRQAPGKGLEWVAGIWPSGGSTSYADSVKGRFTISADTINNSAYLQMNSLRAEDTAVYYCARWNYWGQGTLVTVSS
VL: B1 VL with S30G, S49Y, T52R, Y91G, S92Y, S94G, I96L
B15: NP7 (antibody, V domains shown)
VH: EVQLVESGGGLVQPGGSLRLSCAASGFTISNGGIHWVRQAPGKGLEWVAGIGPYGGFTSYADSVKGRFTISADTSKNTAYLQMNSLRAEDTAVYYCARFYSNYYGYHGVMDYWGQGTLVTVSS
VL: B1 VL with S30F, W31G, S32W, G50Y, T52A, W53S, S92F, S94Y, I96L
B16: NP11 (antibody, V domains shown)
VH: B10 VH with D31S, W32Y, Y33G, G50W, Y54S, F57S, Y59F, Y101F, G102W, S103F
VL: B1 VL with W31S, S32W, G50W, T52G, W53Y, Y91G, S92F, S94Y, I96L
B17: NP15 (antibody, V domains shown)
VH: EVQLVESGGGLVQPGGSLRLSCAASGFTISNWYIHWVRQAPGKGLEWVAGIGPYGGSTYYADSVKGRFTISADTSKNTAYLQMNSLRAEDTAVYYCARFHWDHLHGMDYWGQGTLVTVSS
VL: B1 VL with S30D, W31N, S32N, G50Y, W53G, S92W, S94Y
B18: NP13 (antibody, V domains shown)
VH: EVQLVESGGGLVQPGGSLRLSCAASGFTINNYGIHWVRQAPGKGLEWVASIGPYGGSTYYADSVKGRFTISADTSKNTAYLQMNSLRAEDTAVYYCARFGYFNWLDMDYWGQGTLVTVSS
VL: B10 VL with S31Y, S32W, F49S, Y50S, T51A, S53G, S94W, V96I
B19: NP9 (antibody, V domains shown)
VH: EVQLVESGGGLVQPGGSLRLSCAASGFTINNGWIHWVRQAPGKGLEWVAGIGPYWGFTSYADSVKGRFMISADTSKNTAYLQMNSLRAEDTAVYYCARFDSDHDHHYSYYYYYDNGYMDYWGQGTLVTVSS
VL: B1 VL with S30W, W31F, S49Y, S51T, W53S, S92F, S94Y, I96L
B20: NP12 (antibody, V domains shown)
VH: EVQLVESGGGLVQPGGSLRLSCAASGFTIDNGYIHWVRQAPGKGLEWVASIWPSWGSTYYADSVKGRFTISADTSKNTAYLQMNSLRAEDTAVYYCARGFYYYGDYWGQGTLVTVSS
VL: B10 VL with S31G, S32N, F49S, Y50S, S52A, S53G, G91Y, W92Y, S94F, V96L

These binders were tested against T3, NPA4 (influenza A virus …, UniProt A8C8J8 1-489) (assay: ELISA on recombinant NP).
B1: no binding.

Target: T1, NPA1
Assay: ELISA on recombinant NP
Binder B2 has an EC50 of 0.11 nM. Work on B3 yielded an EC50 of 0.12 nM. For B4, the EC50 was 0.19 nM. With B5 the EC50 was 0.19 nM. B6 showed an EC50 of 0.09 nM. B1 gave an EC50 of 0.36 nM.

Target: T2, NPB1
Assay: ELISA on recombinant NP
In the case of B7, the EC50 is reported as 1.37 nM. Binder B8 has an EC50 of 0.04 nM. With B9 the EC50 was 0.06 nM. B10 was tested, and the EC50 was 0.05 nM. B11 was tested, and the EC50 was 0.27 nM. With B12 the EC50 was 0.1 nM.

What follows are binders tested against NPA2 (influenza A virus A/WSN/1933(H1N1), UniProt A4U6V6 1-489) (assay: ELISA on recombinant NP).
For B13, the EC50 was 2.14 nM. B14 gave an EC50 of 0.13 nM. Work on B3 yielded an EC50 of 28.6 nM. Binder B5 has an EC50 of 0.08 nM. B15 gave an EC50 of 0.79 nM. B16 gave an EC50 of 0.27 nM.

Target: T3, NPA4
Assay: ELISA on recombinant NP
Remark: another data set of the same source
B17 was tested, and the EC50 was 0.35 nM. B18 gave an EC50 of 0.07 nM.

These binders were tested against NPA5 (influenza A virus A/Anhui/1/2005 …, UniProt Q6DPE5 1-489) (assay: ELISA on recombinant NP).
Work on B4 yielded an EC50 of 0.37 nM. Binder B5 has an EC50 of 1.7 nM. In the case of B19, the EC50 is reported as 1.12 nM. B20 was tested, and the EC50 was 9.07 nM. In the case of B1, the EC50 is reported as 0.28 nM. B16 was tested, and the EC50 was 0.06 nM. With B18 the EC50 was 0.09 nM.
